{"source": "patent US20240199759A1", "about": "(CYTOVIA THERAPEUTICS, published 2024)", "binders": {"B1": {"name": "NKE1 (GPC3/NKp46/wt_IgG1), FLEX-NK tetravalent NKp46 engager directed against GPC3 (bispecific antibody)", "heavy": "not shown", "light 1": "DIVMTQSPATLSLSPGERATLSCRASQSISDYLHWFQQKPHESPRLLIKYASQSISGIPARFSGSGSGSDFTLTISSLEPEDFAVYYCQNGHSFPLTFGPGTKVDIKRTVAAPAVFIFPPSDEQLKSGTASVVCLLKNFYPREAKVQWKVDNALQSGNSQESVTEQDSKDSTYSLSSTLTLSKADYEKHKVYACEVTHQGLSSPVTKSFNRGEC", "light 2": "not shown", "notes": "Tetravalent; also called wildtype NKE1; copies: 2 + 2 + 2"}, "B2": {"name": "humanized 09 anti-NKp46 antibody (antibody, IgG4, V domains shown)", "VH": "EVQLQQSGAEVKKPGSSVKVSCKTSGYTFTEYSMHWVRQAPGKSLEWFGGISPNSGGTSYNQKFKGRATLTVDKSSSTAYMELSSLRSEDTAVYYCARRDFHSSFDYWGQGTTVTVSS", "VL": "DIVMTQSPATLSLSPGERATLSCRASQSISDYLHWFQQKPHESPRLLIKYASQSISGIPARFSGSGSGSDFTLTISSLEPEDFAVYYCQNGHSFPLTFGPGTKVDIK", "notes": "Humanized with an IgG4 framework; ELISA used MAbs with humanized variable and mutated IgG4, kappa light chain detected; also called 09 antibody humanized"}, "B3": {"name": "humanized 12 anti-NKp46 antibody (antibody, IgG4, V domains shown)", "VH": "B2 VH", "VL": "B2 VL with M4L", "notes": "Humanized with an IgG4 framework; ELISA used MAbs with humanized variable and mutated IgG4, kappa light chain detected; also called 12 antibody humanized"}, "B4": {"name": "mouse anti-NKp46 monoclonal antibody 09 (antibody, V domains shown)", "VH": "EVQLQQSGPELVKPGTSVKISCKTSGYTFTEYSMHWVKQSHGKSLEWFGGISPNSGGTSYNQKFKGKATLTVDKSSSTAYMELRSLTSEDSAVYYCARRDFHSSFDYWGQGTTLTVSS", "VL": "DIVMTQSPATLSVTPGDRVSLSCRASQSISDYLHWFQQKSHESPRLLIKYASQSISGIPSRFSGSGSGSDFTLSINSVEPEDVGVYYCQNGHSFPLTFGPGTKLELK", "notes": "Mouse hybridoma antibody raised in NKp46-deficient mice against NKp46-Ig; also called 09 antibody; mAb 09"}, "B5": {"name": "mouse anti-NKp46 monoclonal antibody 12 (antibody, V domains shown)", "VH": "B4 VH", "VL": "B4 VL with M4L, D17N, R18S", "notes": "Mouse hybridoma antibody; also called 12 antibody; mAb 12"}}, "key": {"[1]": {"target": "human GPC3 (form in the assay not stated) (human, UniProt P51654 25-559, limits assumed)", "sequence (P51654 25-559 limits assumed)": "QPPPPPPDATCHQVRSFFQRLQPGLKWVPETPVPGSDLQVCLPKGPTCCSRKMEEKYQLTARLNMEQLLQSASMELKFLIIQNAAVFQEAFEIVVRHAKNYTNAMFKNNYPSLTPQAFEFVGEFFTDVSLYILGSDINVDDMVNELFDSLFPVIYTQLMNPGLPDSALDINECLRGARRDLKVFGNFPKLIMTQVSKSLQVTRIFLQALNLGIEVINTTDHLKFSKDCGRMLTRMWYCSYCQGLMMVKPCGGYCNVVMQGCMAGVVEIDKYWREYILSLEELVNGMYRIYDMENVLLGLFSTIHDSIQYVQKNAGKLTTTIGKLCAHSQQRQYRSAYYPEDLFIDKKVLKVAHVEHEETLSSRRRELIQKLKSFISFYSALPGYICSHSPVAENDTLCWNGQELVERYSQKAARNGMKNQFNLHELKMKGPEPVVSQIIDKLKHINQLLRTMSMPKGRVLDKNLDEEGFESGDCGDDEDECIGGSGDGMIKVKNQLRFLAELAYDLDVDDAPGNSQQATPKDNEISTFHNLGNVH", "experiment": "method not stated"}, "[2]": {"target": "T1, Human NKp46 antigen (Acro Biosystems) expressed on HEK293 cells or CHO cells (human, UniProt O76036 22-255)", "T1 construct": "Bought", "T1 sequence (O76036 22-255 limits assumed)": "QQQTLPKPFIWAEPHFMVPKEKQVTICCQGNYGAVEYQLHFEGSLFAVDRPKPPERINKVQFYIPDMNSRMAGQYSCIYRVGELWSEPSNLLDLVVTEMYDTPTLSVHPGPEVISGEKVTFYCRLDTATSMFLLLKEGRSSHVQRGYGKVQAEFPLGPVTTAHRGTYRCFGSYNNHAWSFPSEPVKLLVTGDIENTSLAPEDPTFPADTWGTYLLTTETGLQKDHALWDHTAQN", "experiment": "ELISA on coated human NKp46 antigen, normalized binding curve"}, "[3]": {"target": "T2, human NKp46 (form in the assay not stated) (human, UniProt O76036 22-255, limits assumed)", "T2 sequence (O76036 22-255 limits assumed)": "as above", "experiment": "BIAcore"}, "[4]": {"target": "T2, human NKp46 (form in the assay not …)", "experiment": "BIAcore; SE(KD) 2.20E-10"}}, "note": "Residue numbers refer to the chain shown, from its start.", "data": [{"binder": "B1", "values": [{"measurement": "fold higher affinity compared to human NKp46", "setting": "[1]", "value": "~50", "unit": "fold"}]}, {"binder": "B2", "values": [{"measurement": "Kd", "setting": "[2]", "value": "~0.027", "unit": "nM"}]}, {"binder": "B3", "values": [{"measurement": "Kd", "setting": "[2]", "value": "~0.025", "unit": "nM"}]}, {"binder": "B4", "values": [{"measurement": "kon", "setting": "[3]", "value": "6.22e+07", "unit": "M⁻¹ s⁻¹"}]}, {"binder": "B5", "values": [{"measurement": "Kd", "setting": "[4]", "value": 1.67, "unit": "nM"}]}]}
